The nature of data set [1]: folding stability dG unfold (combined trypsin and chymotrypsin); higher = more stable. The method, boiled down:
(§1)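 Digests were run with trypsin and chymotrypsin at 11 concentrations in threefold dilutions, plus a no-protease condition, on designed mini-proteins in a PA-tagged cDNA display construct. The mini-proteins were under 80 residues, had no cysteine, and were kept only when AlphaFold2 dimer inter-PAE was above 15. After sequencing, Bayesian fitting of the counts gave K50, from which unfolding free energy was derived against a sequence-predicted unfolded-state K50 and a shared folded-state K50, per protease or combined.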

Data set [2] can be described thus: folding stability dG unfold from chymotrypsin proteolysis; higher = more stable. In a few lines: as §1
The nature of data set [3]: folding stability dG unfold from trypsin proteolysis; higher = more stable. The method, boiled down: as §1

± gives the half width of the 95% confidence interval.

In the case of “SAGKKLLVVVEIRVFDKDGKLVREERLVIEVPEEDEEALRRLLEEARRLAEALLPPGARVEIRVRVLPPSAG [r5_793_TrROS_Hall]”, the “folding stability dG unfold” value in data set [1] worked out at 3.6 ± 0.15 kcal/mol; in data set [2], 3.82 ± 0.11 kcal/mol; in data set [3], 2.98 ± 0.13 kcal/mol.
In the same order, the values of “SAGKKTITVEIVVENLTEEEIEEKIREKLKEAGLKVEVVKVEIVKVEEVDGKKYLVVKVEIKIEPEEESAGG [r19_325_TrROS_Hall]” are 3.06 ± 0.12 kcal/mol, 2.87 ± 0.084 kcal/mol and 3.5 ± 0.18 kcal/mol.
In the same order, the values of “SAGKKTITVPLKDLKKVLEELKKKYPNIKKVKIYVNGKEYEIKVGEKVKITEVIKNENGEEFVKIEIYKSAG [r5_130_TrROS_Hall]” are 3.31 ± 0.22 kcal/mol, 3.41 ± 0.082 kcal/mol and 2.97 ± 0.17 kcal/mol.
In the same order, the values of “SAGKKTLIIRVKIRVRRKVDGKEEEVELELVIEVEAEEDEEEARRKAEELARKLAEEYNLEIEEVEIFPSAG [r5_497_TrROS_Hall]” are 4.26 ± 0.11 kcal/mol, 4.31 ± 0.074 kcal/mol and 4.18 ± 0.13 kcal/mol.
On to “SAGKKYIVVVNVDFGSPEKKESAPIVLELDEDEEVSEALAKIPGLEDVKVEVYVIEAEENPELAENPGSAGG [r19_339_TrMRF]”, for which the “folding stability dG unfold” value in data set [1] was determined as 0.994 ± 0.2 kcal/mol; in data set [2] it was 1.38 ± 0.083 kcal/mol; in data set [3], 0.31 ± 0.11 kcal/mol.
The like results for “SAGKMKIIEVKPGEEIKITIPEEGKKVKIYVYNKNGEKVEEKEVEIKPGQTLTFKIPKEDAKVIIEIEDSAG [r5_797_TrROS_Hall]” were, in that order, 2.82 ± 0.18 kcal/mol, 3.11 ± 0.039 kcal/mol and 1.75 ± 0.062 kcal/mol.
As to “SAGKNWYIQIQIEHRDPDGKPKREIPIIIEANPGDPEAFERALEFAERIAEKLHPPGHRVEINVTLFPYSAG [r5_793_TrROS]”, the “folding stability dG unfold” value in data set [1] is 2.43 ± 0.17 kcal/mol; in data set [2], 2.17 ± 0.1 kcal/mol; in data set [3] it was 2.73 ± 0.23 kcal/mol.
The like results for “SAGKPGEPIKLKIRYVDPDNGEPQTFEFPIKRIEDVEIDPPGNIIITFPGDGQEITFPPNHLTEVEILSAGG [r19_416_TrROS]” were, in that order, 0.0637 ± 0.18 kcal/mol, 0.36 ± 0.24 kcal/mol and -0.852 ± 0.73 kcal/mol.
For the sequence “SAGKPIIVKVSVINEDGEEEEIAEFPIPPDLLKGSIEVGDGFIIAPDGEGPTFTAIIGDKPVKIEIEGSAGG [r19_408_TrMRF]”, the “folding stability dG unfold” value is 1.27 ± 0.13 kcal/mol in data set [1], 1.52 ± 0.13 kcal/mol in data set [2] and 0.658 ± 0.058 kcal/mol in data set [3].
Regarding “SAGKPKELAKKIAEKLAKEFEKKHPDVKIEKVEVKKIEVNPIEGYVKIDIVMYGKNGKLIYKPKITIKSAGG [r19_53_TrMRF]”, the “folding stability dG unfold” value in data set [1] worked out at 3.63 ± 0.14 kcal/mol; in data set [2], 3.96 ± 0.083 kcal/mol; in data set [3] it was 3.22 ± 0.27 kcal/mol.
In the same order, the values of “SAGKPNIVVHPEYEQEKDPGDPGQPRIREMRVRVYLPNGRPITFRYRSPEDAVDRLLKRIQENPDLLKSAGG [r19_123_TrROS]” are 2.07 ± 0.19 kcal/mol, 2.11 ± 0.13 kcal/mol and 1.79 ± 0.12 kcal/mol.
In the same order, the values of “SAGKPVLLKIEIEVKVNGKTVKLELEILVEPGETIEELLAALPGVEEVKIKIEPISLEELEELKKKKPSAGG [r19_339_TrROS_Hall]” are 1.53 ± 0.3 kcal/mol, 1.88 ± 0.059 kcal/mol and 0.867 ± 0.23 kcal/mol.
The like results for “SAGKRTIMIPFNVKPNQIRNIAKDIVEMHPGWKIKSIKVFNPNNGEPQELPLGDVPPNEPVWIKVEIEPSAG [r5_357_TrROS]” were, in that order, 2.29 ± 0.15 kcal/mol, 2.21 ± 0.05 kcal/mol and 2.36 ± 0.1 kcal/mol.
With “SAGKSVKLSISVNPDNNSITITLEVEFKPDEKINIPAKFYLKDKEFNANYSVTKTPDGKAIATFTIELDSAG [r5_596_TrMRF]”, the results for the “folding stability dG unfold” value in data set [1], in data set [2] and in data set [3] were 3.63 ± 0.38 kcal/mol, 4.57 ± 0.23 kcal/mol and 2.67 ± 0.27 kcal/mol, respectively.
Consider “SAGKVEIIPIENEDGSKFLVIKVNGKLIIITENEDGSISIKIIDLKTNKIEVIEIPKKDLKKALEKILKSAG [r5_674_TrROS_Hall]”, for which the “folding stability dG unfold” value came out at 3.59 ± 0.2 kcal/mol in data set [1], 3.48 ± 0.12 kcal/mol in data set [2] and 3.82 ± 0.18 kcal/mol in data set [3].
In the same order, the values of “SAGKVIIIPAEKAEPELIKEILKKVPEGTEIRIAFAGPELVELLKELGFEVKPELVKPLTPEDLKKLLESAG [r5_354_TrMRF]” are 1.59 ± 0.11 kcal/mol, 1.92 ± 0.092 kcal/mol and 0.747 ± 0.062 kcal/mol.
In the same order, the values of “SAGKVVKISAPIEVLRNIPNVLELYVVGDKVYLVVPNELLVVDLDLPPLVPTVPESVPEELALLGGLLGSAG [r5_2_TrMRF]” are 1.48 ± 0.13 kcal/mol, 1.74 ± 0.052 kcal/mol and 0.728 ± 0.051 kcal/mol.
Take “SAGKVYRIKATAPDGSTAIIEIPENGNAKIKIFYPNGVKEITINLDPNVKIEEILEKFPNFIISSIEEESAG [r5_259_TrMRF]”: the “folding stability dG unfold” value in data set [1] was 4.15 ± 0.22 kcal/mol; in data set [2] it was 3.95 ± 0.22 kcal/mol; in data set [3], 5.01 ± 0.8 kcal/mol.

Source of the values: the supplement of paper PMC12764529.
